Reference: article PMC11041648
pKd: −log10 of the molar value. Where two headings read alike, the source gives them in different places.

Legend:
PGT145 IgG (human) [1] = assay: BLI; Octet Red; PGT145 IgG (8 µg/mL) loaded on anti-human IgG Fc capture biosensors; twofold dilution series of SOSIP trimer as analyte; 3 min association, 3 min dissociation; PBS pH 7.4, 0.1% BSA, 0.005% Tween 20, 0.02% NaN3; 1:1 binding model; averages of at least two independent experiments
PGT145 IgG (human) [2] = assay: as above; remark: listed apart in the source

Chain of PGT145 IgG (human) (heavy, as listed by the source, chain 1 of 2): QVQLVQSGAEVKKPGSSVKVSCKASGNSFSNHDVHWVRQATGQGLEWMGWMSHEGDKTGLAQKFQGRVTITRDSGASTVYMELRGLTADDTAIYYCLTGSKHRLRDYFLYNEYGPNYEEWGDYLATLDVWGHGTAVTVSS
Chain of PGT145 IgG (human) (light, as listed by the source, chain 2 of 2): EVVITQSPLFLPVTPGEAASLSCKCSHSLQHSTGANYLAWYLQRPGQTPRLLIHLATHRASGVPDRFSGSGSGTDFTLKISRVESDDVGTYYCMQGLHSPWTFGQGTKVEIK

Substance | pKd (PGT145 IgG (human) [1]) | koff (PGT145 IgG (human) [1]) [s⁻¹] | kon (PGT145 IgG (human) [1]) [M⁻¹ s⁻¹] | pKd (PGT145 IgG (human) [2]) | koff (PGT145 IgG (human) [2]) [s⁻¹] | kon (PGT145 IgG (human) [2]) [M⁻¹ s⁻¹]
CNE8 SOSIP.664 Env trimer (complex) | 7.29 | 0.00419 | 83400 | – | – | –
BG505 SOSIP.664 Env trimer (complex) | 7.80 | 0.00177 | 120000 | 7.81 | 0.00185 | 129000
BJOX2000 SOSIP.664 Env trimer (complex) | 7.56 | 0.00152 | 66700 | – | – | –
